Data published in patent US20030148958A1 (PROCTER AND GAMBLE, published 2003).
Ends that are not written are not given here.

T1: corticotropin releasing factor 2 receptor
T1 sequence (Q13324 whole entry, species assumed, looked up): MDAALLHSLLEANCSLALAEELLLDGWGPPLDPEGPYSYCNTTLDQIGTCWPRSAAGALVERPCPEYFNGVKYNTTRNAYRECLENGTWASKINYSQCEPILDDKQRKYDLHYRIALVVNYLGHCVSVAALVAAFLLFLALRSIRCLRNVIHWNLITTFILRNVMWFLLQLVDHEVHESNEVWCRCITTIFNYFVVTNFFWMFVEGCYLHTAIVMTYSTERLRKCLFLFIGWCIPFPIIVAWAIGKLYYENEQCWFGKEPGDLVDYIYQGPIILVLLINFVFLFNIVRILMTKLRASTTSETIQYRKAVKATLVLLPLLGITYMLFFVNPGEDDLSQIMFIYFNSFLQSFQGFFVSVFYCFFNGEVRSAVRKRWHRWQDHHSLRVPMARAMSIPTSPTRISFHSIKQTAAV


The binders below were run against T1, corticotropin releasing factor 2 … (assay: cell-based or functional assay).
Throughout, for CRF1R Emax: reference of the scale not given here.
Throughout, for CRF2R Emax: reference of the scale not given here.

Row | CRF2R EC50 [nM] | CRF2R Emax [%] | Binder
1 | 12.6 | 90.2 | DNPSLSIDLPLQLLRTLLELARTQSQRERAEQNAIIFASV-NH2 [SEQ ID NO 176]
2 | 42 | 60.6 | SQEPPISLDLTFHLLREVLEQARARAAREQATTNARILARV-NH2 [SEQ ID NO 157]
3 | 3.7 | 99 | IVLSLDVPIGLLQILIEIEKQEKEKQQAANNARILARV-NH2 [SEQ ID NO 166]
4 | 100 | 65.2 | DNPSLSIDLPTYLLRTLLELARTQSQRERAEQNAIIFASV-NH2 [SEQ ID NO 173]
5 | 5.17 | 96.5 | DNPSLSIDLPLFLLRTLLELARTQSQRERAEQNAIIFASV-NH2 [SEQ ID NO 178]
6 | 90.8 | 62 | IVLSLDVPIGLLQILLEQTKADQLAQQAHSNRKLLDIA-NH2 [SEQ ID NO 159]
7 | 5.42 | 92.2 | DNPSLSIDLPLILLRTLLELARTQSQRERAEQNAIIFASV-NH2 [SEQ ID NO 175]
8 | 2.24 | 92 | IVLSLDVPIGLLQILLEMARAEQLAQQAHSNRKLMEII-NH2 [SEQ ID NO 164]
9 | 20.6 | 94 | IVLSLDVPIGLLQILLEMTKADQLAQQAHSNRKLLDIA-NH2 [SEQ ID NO 155]
10 | 10.2 | 96 | ZGPPISIDLPFQLLRKMIEIEKQEKEKQQATTNRLLLATV (C-terminal amide) [SEQ ID NO 17]
11 | 4.42 | 97.2 | DNPSLSIDLPLLLLRTLLELARTQSQRERAEQNAIIFASV-NH2 [SEQ ID NO 174]
12 | 5.63 | 97.7 | DNPSLSIDLPLYLLRTLLELARTQSQRERAEQNAIIFASV-NH2 [SEQ ID NO 177]
13 | 75 | 83 | ZGPPISIDVPTYLLRKMIEIEKQEKEKQQATTNARILARV (C-terminal amide) [SEQ ID NO 170]
14 | 17.6 | 100 | ZGPPISIDVPFQLLRILIEIEKQEKEKQQATTNARILARV (C-terminal amide) [SEQ ID NO 171]
15 | 13.5 | 100 | ZGPPISIDVPFQLLRKMIEIEKQEKEKQQATTNARILARV (C-terminal amide) [SEQ ID NO 172]
16 | 4.9 | 75 | IVLSLDVPIGLLQILIEIEKQEKEKQQAATTNARILARV-NH2 [SEQ ID NO 168]

More lines, now with the values behind:

Row | Binder | CRF2R EC50 [nM] | CRF2R Emax [%]
17 | IVLSLDVPIGLLQTLLELARTQSQRERAEQNRIIFDSV-NH2 [SEQ ID NO 160] | 9.15 | 87
18 | IVLSLDVPIGLLQILIEIEKQEKEKQQAANNRLLLDTI-NH2 [SEQ ID NO 154] | 10.3 | 100
19 | IVLSLDVPIGLLQILLEQARARAAREQATSNRKLMEII-NH2 [SEQ ID NO 163] | 4.49 | 96
20 | SEEPPISLDLTFHLLREVLEMARAEQLAQQAHTNARILARV-NH2 [SEQ ID NO 161] | > 100 | 88
21 | IVLSLDVPIGLLQEVLEMARAEQLAQQAHSNRKLMEII-NH2 [SEQ ID NO 165] | > 100 | 75
22 | ZGPPISIDLPFQLLRKMIEIEKQEKEKQQATTNRLLLDTV (C-terminal amide) [SEQ ID NO 16] | 7.88 | 86
23 | ZGPPISIDLPFQLLRKMIEIEKQEKEKQQATTNRLLLDRV (C-terminal amide) [SEQ ID NO 18] | 5.29 | 97
24 | SEEPPISLDVPIGLLQEVLEMARAEQLAQQAHSNRKLMEII-NH2 [SEQ ID NO 162] | > 100 | 7
25 | IVLSLDVPIGLLQILLEQEKQEKEKQQATTNARILARV-NH2 [SEQ ID NO 167] | 13 | 100
26 | IVLSLDVPIGLLQILLEIEKQEKEKQQAANNRLLLDTI-NH2 [SEQ ID NO 158] | 6.37 | 89
27 | ZGPPISIDVPTYLLRILIEIEKQEKEKQQATTNARILARV (C-terminal amide) [SEQ ID NO 169] | 17.8 | 93
28 | ZGPPISIDLSLELLRKMIEQARARAAREQATTNARILARV (C-terminal amide) [SEQ ID NO 156] | 9.29 | 79

What follows are binders tested against corticotropin releasing factor 1 receptor (assay: cell-based or functional assay).

Row | CRF1R EC50 [nM] | CRF1R Emax [%] | Binder
29 | 1000 | 26.9 | DNPSLSIDLPLQLLRTLLELARTQSQRERAEQNAIIFASV-NH2 [SEQ ID NO 176]
30 | 100 | 91 | SQEPPISLDLTFHLLREVLEQARARAAREQATTNARILARV-NH2 [SEQ ID NO 157]
31 | 438 | 95 | IVLSLDVPIGLLQILIEIEKQEKEKQQAANNARILARV-NH2 [SEQ ID NO 166]
32 | 1000 | 6.05 | DNPSLSIDLPTYLLRTLLELARTQSQRERAEQNAIIFASV-NH2 [SEQ ID NO 173]
33 | 1000 | 55.7 | DNPSLSIDLPLFLLRTLLELARTQSQRERAEQNAIIFASV-NH2 [SEQ ID NO 178]
34 | > 100 | 9 | IVLSLDVPIGLLQILLEQTKADQLAQQAHSNRKLLDIA-NH2 [SEQ ID NO 159]
35 | 1000 | 34.8 | DNPSLSIDLPLILLRTLLELARTQSQRERAEQNAIIFASV-NH2 [SEQ ID NO 175]
36 | > 100 | 26 | IVLSLDVPIGLLQILLEMARAEQLAQQAHSNRKLMEII-NH2 [SEQ ID NO 164]
37 | 40.6 | 16 | IVLSLDVPIGLLQILLEMTKADQLAQQAHSNRKLLDIA-NH2 [SEQ ID NO 155]
38 | 260 | 98 | ZGPPISIDLPFQLLRKMIEIEKQEKEKQQATTNRLLLATV (C-terminal amide) [SEQ ID NO 17]
39 | 1000 | 29.1 | DNPSLSIDLPLLLLRTLLELARTQSQRERAEQNAIIFASV-NH2 [SEQ ID NO 174]
40 | 613 | 69.2 | DNPSLSIDLPLYLLRTLLELARTQSQRERAEQNAIIFASV-NH2 [SEQ ID NO 177]
41 | 1000 | 9 | ZGPPISIDVPTYLLRKMIEIEKQEKEKQQATTNARILARV (C-terminal amide) [SEQ ID NO 170]
42 | 206 | 99 | ZGPPISIDVPFQLLRILIEIEKQEKEKQQATTNARILARV (C-terminal amide) [SEQ ID NO 171]
43 | 1000 | 68 | ZGPPISIDVPFQLLRKMIEIEKQEKEKQQATTNARILARV (C-terminal amide) [SEQ ID NO 172]
44 | 1000 | 52 | IVLSLDVPIGLLQILIEIEKQEKEKQQAATTNARILARV-NH2 [SEQ ID NO 168]

More lines, now with the values behind:

Row | Binder | CRF1R EC50 [nM] | CRF1R Emax [%]
45 | IVLSLDVPIGLLQTLLELARTQSQRERAEQNRIIFDSV-NH2 [SEQ ID NO 160] | > 100 | 10
46 | IVLSLDVPIGLLQILIEIEKQEKEKQQAANNRLLLDTI-NH2 [SEQ ID NO 154] | > 100 | 7
47 | IVLSLDVPIGLLQILLEQARARAAREQATSNRKLMEII-NH2 [SEQ ID NO 163] | > 100 | 13
48 | SEEPPISLDLTFHLLREVLEMARAEQLAQQAHTNARILARV-NH2 [SEQ ID NO 161] | > 100 | 77
49 | IVLSLDVPIGLLQEVLEMARAEQLAQQAHSNRKLMEII-NH2 [SEQ ID NO 165] | > 100 | 19
50 | ZGPPISIDLPFQLLRKMIEIEKQEKEKQQATTNRLLLDTV (C-terminal amide) [SEQ ID NO 16] | 136 | 98
51 | ZGPPISIDLPFQLLRKMIEIEKQEKEKQQATTNRLLLDRV (C-terminal amide) [SEQ ID NO 18] | 106 | 100
52 | SEEPPISLDVPIGLLQEVLEMARAEQLAQQAHSNRKLMEII-NH2 [SEQ ID NO 162] | > 100 | 11
53 | IVLSLDVPIGLLQILLEQEKQEKEKQQATTNARILARV-NH2 [SEQ ID NO 167] | 1000 | 15
54 | IVLSLDVPIGLLQILLEIEKQEKEKQQAANNRLLLDTI-NH2 [SEQ ID NO 158] | > 100 | 15
55 | ZGPPISIDVPTYLLRILIEIEKQEKEKQQATTNARILARV (C-terminal amide) [SEQ ID NO 169] | 978 | 26
56 | ZGPPISIDLSLELLRKMIEQARARAAREQATTNARILARV (C-terminal amide) [SEQ ID NO 156] | > 100 | 6
